Results taken from PMC3605307.

What was measured:
[1] = target: human TRAIL-R2-Fc R154A (human) (UniProt O14763); assay: SPR
[2] = target: human TRAIL-R2-Fc P150A (human) (UniProt O14763); assay: SPR
[3] = target: Human TRAIL-R2-Fc F112A (human) (UniProt O14763); assay: SPR
[4] = target: Human TRAIL-R2-Fc V167A (human) (UniProt O14763); assay: SPR
[5] = target: human TRAIL-R2-Fc L110A/L114A (human) (UniProt O14763); assay: SPR
[6] = target: human TRAIL-R2-Fc E78A/D109A (human) (UniProt O14763); assay: SPR
[7] = target: human TRAIL-R2-Fc M152A/R154A/K155A (human) (UniProt O14763); assay: SPR
[8] = target: human TRAIL-R2-Fc K155A (human) (UniProt O14763); assay: SPR
[9] = target: Human TRAIL-R2-Fc D148A (human) (UniProt O14763); assay: SPR
[10] = target: human TRAIL-R2-Fc M152A (human) (UniProt O14763); assay: SPR
[11] = target: Human CD155-Fc fusion protein (human) (UniProt P15151); assay: SPR
[12] = target: Recombinant UL141 ectodomain (soluble, released from the Fc fusion) (human cytomegalovirus (HCMV), FIX strain) (UniProt Q6RJQ3); assay: SEC; size-exclusion elution profiles of the purified proteins against marker proteins
[13] = target: Human TRAIL-R2-Fc D109A together with E78A (human) (UniProt O14763); assay: SPR
[14] = target: Human TRAIL-R2-Fc fusion protein (wild type) (human) (UniProt O14763); assay: SPR
[15] = target: Human TRAIL-R2-Fc double mutation L110A and L114A (human) (UniProt O14763); assay: SPR
[16] = target: TRAIL-R1-Fc fusion protein (UniProt O00220); assay: SPR
[17] = target: TRAIL-R1 ECD (Homo sapiens) (UniProt O00220); assay: SPR; conditions: cited from earlier work
[18] = target: TRAIL-R2 ECD (Homo sapiens) (UniProt O14763); assay: SPR; conditions: cited from earlier work

Sequence of Human CD155-Fc fusion protein (human) (P15151 21-343): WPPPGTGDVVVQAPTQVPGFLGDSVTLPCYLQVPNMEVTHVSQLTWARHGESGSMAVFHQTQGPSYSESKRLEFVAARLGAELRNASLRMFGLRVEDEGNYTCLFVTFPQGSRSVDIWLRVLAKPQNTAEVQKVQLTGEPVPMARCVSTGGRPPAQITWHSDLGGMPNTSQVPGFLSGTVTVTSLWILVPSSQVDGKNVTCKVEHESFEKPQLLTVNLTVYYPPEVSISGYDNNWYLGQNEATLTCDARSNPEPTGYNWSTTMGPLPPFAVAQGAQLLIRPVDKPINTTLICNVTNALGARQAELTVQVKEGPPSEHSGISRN
Sequence of TRAIL-R1-Fc fusion protein (O00220 24-239): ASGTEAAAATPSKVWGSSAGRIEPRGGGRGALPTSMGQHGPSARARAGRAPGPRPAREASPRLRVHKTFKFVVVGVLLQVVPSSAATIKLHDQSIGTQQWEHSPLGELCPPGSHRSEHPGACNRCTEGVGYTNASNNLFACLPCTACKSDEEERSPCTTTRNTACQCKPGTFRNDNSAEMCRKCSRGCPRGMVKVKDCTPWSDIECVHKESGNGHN
Sequence of TRAIL-R1 ECD (Homo sapiens) (O00220 24-239): as above

With “HCMV UL141 ectodomain, soluble (released from the thrombin-cleavable Fc fusion) (from UniProt Q6RJQ3 37-278) (domain or fragment)” as the substance, how does the Kd [1] read?
The Kd was 0.00626 µM.

What about the koff [1] of the same substance?
The koff was 0.000243 s⁻¹.

And the kon [1]?
The kon was 38800 M⁻¹ s⁻¹.

What about the Kd [2] of the same substance?
Its Kd is 0.00832 µM.

What about the koff [2] of the same substance?
Its koff is 0.000391 s⁻¹.

And the kon [2]?
Its kon is 47000 M⁻¹ s⁻¹.

And the Kd [3]?
The Kd was 0.63 µM.

What about the koff [3] of the same substance?
The koff was 0.00566 s⁻¹.

And the kon [3]?
Its kon is 8980 M⁻¹ s⁻¹.

What about the Kd [4] of the same substance?
Its Kd is 0.0155 µM.

What about the koff [4] of the same substance?
The koff was 0.00048 s⁻¹.

What about the kon [4] of the same substance?
Its kon is 31000 M⁻¹ s⁻¹.

What about the Kd [5] of the same substance?
Its Kd is 0.0427 µM.

What about the koff [5] of the same substance?
The koff was 0.00064 s⁻¹.

What about the kon [5] of the same substance?
Its kon is 15000 M⁻¹ s⁻¹.

What about the Kd [6] of the same substance?
Its Kd is 0.0604 µM.

What about the koff [6] of the same substance?
The koff was 0.00151 s⁻¹.

What about the kon [6] of the same substance?
Its kon is 25000 M⁻¹ s⁻¹.

And the Kd [7]?
Its Kd is 0.00739 µM.

What about the koff [7] of the same substance?
The koff was 0.00027 s⁻¹.

What about the kon [7] of the same substance?
Its kon is 36500 M⁻¹ s⁻¹.

And the Kd [8]?
The Kd was 0.00774 µM.

And the koff [8]?
Its koff is 0.00038 s⁻¹.

And the kon [8]?
Its kon is 49100 M⁻¹ s⁻¹.

What about the Kd [9] of the same substance?
The Kd was 0.0553 µM.

And the koff [9]?
Its koff is 0.0013 s⁻¹.

What about the kon [9] of the same substance?
The kon was 23500 M⁻¹ s⁻¹.

And the Kd [10]?
Its Kd is 0.00749 µM.

And the koff [10]?
The koff was 0.000382 s⁻¹.

And the kon [10]?
The kon was 51000 M⁻¹ s⁻¹.

Which results are given for “Pre-formed UL141–TRAIL-R2 complex (from UniProt Q6RJQ3;O14763)”?
K Dave [11]: 2 nM; Kd [11]: 0.00219 µM; koff [11]: 0.000333 s⁻¹; kon [11]: 152000 M⁻¹ s⁻¹

Which results are given for “Recombinant UL141 ectodomain (soluble, released from the Fc fusion) (from UniProt Q6RJQ3 37-278) (domain or fragment)”?
stoichiometry N [12]: 2; fold reduction of binding affinity against wild type [13]: 10 fold; Kd [14]: 0.00596 µM; koff [14]: 7.21e-05 s⁻¹; kon [14]: 12100 M⁻¹ s⁻¹; Kd [3]: 0.63 µM; Kd [4]: 0.015 µM; Kd [15]: 0.043 µM; Kd [9]: 0.055 µM; KDeq [16]: 2.27 µM; Kd [16]: 2.33 µM; koff [16]: 0.014 s⁻¹; kon [16]: 6020 M⁻¹ s⁻¹; K Dave [11]: 2 nM; Kd [11]: 0.00197 µM; koff [11]: 0.000346 s⁻¹; kon [11]: 176000 M⁻¹ s⁻¹

Which results are given for UL141 (from UniProt Q6RJQ3)?
Kd [17]: 2.3 µM; Kd [18]: 0.006 µM
